{"source": "patent US20120093719A1", "about": "(PROSCAN RX PHARMA, published 2012)", "binders": {"B1": {"name": "murine monoclonal anti-PSMA antibody mAb1 (antibody, V domains shown)", "VH": "EVQLQQSGAELVKPGASVKLSCTASGFNIKDTYMHWVKQRPEQGLEWIGGIDPADGETKYDPKFQDKATITTDTSSNTVYLQISSLTSEDTAVYYCVRSFDYWGQGTTLTVSS", "VL": "DVVMTQTPLSLPVSLGDQASISCRSSQSLVHSNGNTYLHWYLQKPGQSPKFLIYKASNRFSGVPDRFSGRGSGTDFTLKISRVEAEDLGVYFCFQSTHVPYTFGGGTKLEIKR", "notes": "also called murine anti-PSMA antibody; murine parental antibody"}, "B2": {"name": "murine/human chimeric anti-PSMA antibody chAb1 (antibody, human IgG1, kappa, V domains shown)", "VH": "EVQLQQSGAELVKPGASVKLSCTASGFNIKDTYMHWVKQRPEQGLEWIGGIDPADGETKYDPKFQDKATITTDTSSNTVYLQISSLTSEDTAVYYCVRSFDYWGQGTTLTVSS", "VL": "DVVMTQTPLSLPVSLGDQASISCRSSQSLVHSNGNTYLHWYLQKPGQSPKFLIYKASNRFSGVPDRFSGRGSGTDFTLKISRVEAEDLGVYFCFQSTHVPYTFGGGTKLEIKR", "notes": "also called chimeric antibody"}, "B3": {"name": "DOTA-conjugated chimeric anti-PSMA antibody chAb1-DOTA (antibody, V domains shown)", "VH": "EVQLQQSGAELVKPGASVKLSCTASGFNIKDTYMHWVKQRPEQGLEWIGGIDPADGETKYDPKFQDKATITTDTSSNTVYLQISSLTSEDTAVYYCVRSFDYWGQGTTLTVSS", "VL": "DVVMTQTPLSLPVSLGDQASISCRSSQSLVHSNGNTYLHWYLQKPGQSPKFLIYKASNRFSGVPDRFSGRGSGTDFTLKISRVEAEDLGVYFCFQSTHVPYTFGGGTKLEIKR", "modifications": "DOTA conjugated through DOTA-NHS ester; sites and chain not stated", "notes": "also called DOTA conjugated antibody"}}, "key": {"[1]": {"biological_target": "T1, prostate specific membrane antigen (PSMA) (human, UniProt Q04609 1-750)", "T1 construct": "whole, on cells; In the assays PSMA stood as endogenous protein in LNCaP cell membrane preparations (ELISA) or LNCaP lysate (western blot); The background says PSMA forms a noncovalent homodimer", "T1 sequence (Q04609 whole entry)": "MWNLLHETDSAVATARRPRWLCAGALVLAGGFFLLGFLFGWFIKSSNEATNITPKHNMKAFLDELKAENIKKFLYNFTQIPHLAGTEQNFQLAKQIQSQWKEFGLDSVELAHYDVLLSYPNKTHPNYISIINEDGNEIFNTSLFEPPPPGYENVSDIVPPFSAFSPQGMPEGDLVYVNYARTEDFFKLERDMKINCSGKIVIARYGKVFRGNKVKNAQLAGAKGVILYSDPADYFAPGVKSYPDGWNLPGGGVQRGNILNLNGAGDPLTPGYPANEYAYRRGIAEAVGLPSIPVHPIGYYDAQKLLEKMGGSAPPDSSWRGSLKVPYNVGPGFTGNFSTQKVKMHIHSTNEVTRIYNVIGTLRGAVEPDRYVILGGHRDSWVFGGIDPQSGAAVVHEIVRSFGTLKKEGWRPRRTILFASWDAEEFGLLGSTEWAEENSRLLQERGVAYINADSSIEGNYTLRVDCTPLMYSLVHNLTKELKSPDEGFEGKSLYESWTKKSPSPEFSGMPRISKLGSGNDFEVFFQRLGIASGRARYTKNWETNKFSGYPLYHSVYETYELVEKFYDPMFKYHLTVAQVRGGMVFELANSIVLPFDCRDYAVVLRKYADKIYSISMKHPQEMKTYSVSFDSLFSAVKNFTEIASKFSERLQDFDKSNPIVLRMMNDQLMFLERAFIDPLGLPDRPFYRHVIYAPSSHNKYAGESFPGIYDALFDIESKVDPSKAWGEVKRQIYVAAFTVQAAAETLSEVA", "assay": "ELISA, serially diluted antibody on membrane preparation of PSMA-expressing LNCaP cells against PSMA-negative PC-3", "method": "FIG. 4: immunoreactivity mAb1 to cancer cell line. Serially diluted purified antibody was tested by ELISA on a cell membrane preparation that express PSMA (LNCaP) or not (PC-3). The antibody reacts strongly with the LNCaP preparation while the PC-3 remains unreactive;\nImmunoreactivity of mAb1_against cancer cell line was tested by ELISA. Serially diluted purified antibody was tested on a cell membrane preparation that express PSMA (LNCaP) or not (PC-3)."}, "[2]": {"biological_target": "T1, prostate specific membrane antigen …", "assay": "ELISA after 5 days at 37 C in 0.1M glycine buffered with Tris to pH 7.4"}, "[3]": {"biological_target": "T1, prostate specific membrane antigen …", "assay": "ELISA on LNCaP or PC-3 membrane preparation", "method": "An ELISA assay was used to test the reactivity and specificity of purified chimeric anti-PSMA antibodies. Briefly, 96-well plates (Immulon 2HB) were coated overnight at 4° C. or for 2 h at 37° C. with 100 uL of PBS containing 5 ug of cell membrane preparation. Plates were washed four times with 200 uL of 10 mM Tris-HCl, 150 mM NaCl, and 0.1% Tween-20 (TBST, pH 7.5), and blocked for 1 h with 200 uL of TBST containing 5% FBS. Plates were then washed and incubated for 1 h at room temperature using 100 uL of serially diluted purified chimeric anti-PSMA antibodies in TBST containing 5% FBS. Antibody binding was detected by the sequential addition, followed by washing, of 100 uL of horseradish peroxidase (HRP) conjugated goat anti-human IgG whole molecule (Jackson Immunoresearch) diluted 1:5000 in TBST containing 5% FBS, for 1 h at room temperature, and 100 uL of HRP colorimetric substrate solution 3,3′,5,5′-tetramethylbenzidine (BioFX Laboratories). The reaction was stopped with the addition of 100 uL of 0.5 M sulphuric acid and the absorbance was read at 450 nm in a microplate reader (Bio-Tek Instruments).\nThe reactivity of the DOTA conjugated antibody (chAb1-DOTA) was compared to the unconjugated antibody (chAb1) by ELISA on a cell membrane preparation that express PSMA (LNCaP) or not (PC-3) (FIG. 14)."}}, "data": [{"binder": "B1", "values": [{"measurement": "binding result", "setting": "[1]", "result": "binds"}]}, {"binder": "B2", "values": [{"measurement": "binding result", "setting": "[2]", "result": "binds"}]}, {"binder": "B3", "values": [{"measurement": "binding result", "setting": "[3]", "result": "binds"}]}]}
